Changes are numbered by the printed parent chain. Blank lines part the entries; values can stand above or below the binder they belong to.
Assays:
[1] = target: T1, human CXCL13 (human, UniProt O43927 23-109); experiment: ELISA binding, Fab
T1 construct: also called huCXCL13; rhCXCL13
T1 sequence (looked up): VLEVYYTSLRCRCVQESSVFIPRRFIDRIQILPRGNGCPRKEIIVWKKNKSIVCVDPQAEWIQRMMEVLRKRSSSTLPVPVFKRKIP

[2] = target: T1, human CXCL13; experiment: SPR Biacore, off-rate ranking of Fabs
[3] = target: T1, human CXCL13; experiment: cell-based blocking assay, CXCL13 to CXCR5 cells
Outline: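 The IC50 of the humanized Fabs was taken from a titration series. Each dilution was pre-incubated for 30 min at room temperature with an equal volume of human CXCL13 at 0.3 μg/ml, and 100 μl was then added for 30 min to fixed, blocked CHO-K1 cells expressing CXCR5 (5×10⁴/well). After three PBST washes, bound CXCL13 was captured with 3 μg/ml human anti-CXCL13 antibody, detected with anti-human Fc-HRP and read at 450 nm.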

[4] = target: T1, human CXCL13; experiment: SPR Biacore 8K, Fab over immobilised CXCL13
Outline: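 Surface plasmon resonance: CXCL13 amine-coupled to CM5 chip at ~250 RU, humanized Fabs injected at 0–20 nM, 30 μl/min, in HEPES-buffered saline with EDTA and Tween-20, pH 7.4. Dissociation 600 s; regeneration with glycine-HCl pH 2.0.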

[5] = target: T1, human CXCL13; experiment: SPR Biacore T200
From the text: In the first approach, mutations were chosen to target the hotspots in LCDR1, HCDR2 and HCDR3. Usually, CDR3 contributes most to antigen binding and heavy chain is more important than light chain for antigen binding. Moreover, LCDR1 is important for antigen binding. For the first trial, random mutations were targeted to hotspots in LCDR1, HCDR2 and HCDR3. Eliminate hotspots that code for conserved and buried amino acids in CDRs. […] After finishing construction of phage library, antigen CXCL13 screening was followed. Antibodies of these sequences were generated, and affinity testing was performed by Biacore T200.

[6] = target: T1, human CXCL13; experiment: SPR Biacore 8K, Fab over immobilised CXCL13; remark: listed apart in the source
Description: HuCXCL13 binding affinity by Surface Plasmon Resonance. 411A11E9, 415A3D1, 64C10G1, 21H12D9, 329F2E1, 71F4A3 were selected to produce Fab and tested binding affinity. The binding of the antibodies to huCXCL13 was examined by Biacore 8K. 10 mM HEPES, 150 mM NaCl, 3 mM EDTA, 0.05% Tween-20, pH 7.4 served as running buffer and 10 mM glycine-HCl, pH2.0 served as regeneration buffer. CXCL13 protein was immobilized on Sensor Chip CM5 using amine coupling method (immobilization level ˜30RU). The serial concentrations of Fab (0-16 nM) were injected over immobilized CXCL13 at the flow rate of 30 μl/min. The dissociation phases were 600s.

[7] = target: T1, human CXCL13; experiment: cell-based blocking ELISA, CXCL13 to CHO-K1-CXCR5
Description: This example tested the blocking of the anti-CXCL13 chimeric antibodies to CHO-K1-CXCR5 cells. Briefly, 5×10⁴ CHO-K1-CXCR5 cells were plated in 96-well plate with 100 μl of culture medium and incubated at 37° C. overnight. Cells were fixed with 100 μl of 2% PFA at RT for 1 hr after washing with PBS for 1 time. Samples were blocked with 1% BSA in PBST for 1 hr at RT. Antibodies were serial diluted from 50 μg/ml by 3-fold with 1% BSA/PBST and pre-incubated with equal volume of 0.3 μg/ml human CXCL13 for 30 min at RT. 100 μl of antibody-antigen complex was transferred into each cell wells for 30 min at RT. Samples were washed with 1×PBST for 3 times and 100 μl of 3 μg/ml of human Mab5261 antibody was added into each well to capture human CXCL13 and anti-human Fc-HRP was used to indirectly detect human CXCL13 when it bound to CHO-K1-CXCR5 cells.
Then read at 450 nm. […] Among all clones, 415A3D1, 64C10G1, 1H3A11, 414D10F5, 411A11E9, 21H12D9, 71F4A3, 329F2E1 show completely blocking activity and 408E3F3, 19H7E10, 339A6E7 appeared to be partial blockers.

EC50 [1]: 1.07 nM | Kd [2]: 2.98 nM | koff [2]: 0.00543 s⁻¹ | kon [2]: 1.82e+06 M⁻¹ s⁻¹ | IC50 [3]: 7.69 nM | Kd [4]: 2.98 nM | koff [4]: 0.00543 s⁻¹ | kon [4]: 1.82e+06 M⁻¹ s⁻¹
B1: 64C10G1-VH1VL3 (Fab, V domains shown)
VH: EVQLVESGGGLVQPGGSLRLSCAASGFTFSSYAMSWVRQAPGKGLEWVATISDGGSDAYYPDNVKGRFTISRDNAKNSLYLQMNSLRAEDTAVYYCARDYYGSGYEDSPMDYWGQGTLVTVSS
VL: DIQMTQSPSSLSASVGDRVTITCKASQDINKYIAWYQQKPGKAPKLLIHYTSTLQPGIPSRFSGSGSGTDFTFTISSLQPEDFATYYCLQYDNLYTFGGGTKLEIK
notes: Humanized Fab, human gamma 1 and kappa constant domains; also called 64C10G1-VH1VL3(Fab)

EC50 [1]: 1.29 nM | Kd [2]: 5.89 nM | koff [2]: 0.0255 s⁻¹ | kon [2]: 4.33e+06 M⁻¹ s⁻¹ | IC50 [3]: 7.79 nM | Kd [4]: 5.89 nM | koff [4]: 0.0255 s⁻¹ | kon [4]: 4.33e+06 M⁻¹ s⁻¹
B2: 64C10G1-VH1VL1 (Fab, V domains shown)
VH: B1 VH
VL: B1 VL with H49Y, I58V, F83I
notes: Humanized Fab, human gamma 1 and kappa constant domains; also called 64C10G1-VH1VL1(Fab)

EC50 [1]: 0.784 nM | Kd [2]: 3.68 nM | koff [2]: 0.00713 s⁻¹ | kon [2]: 1.94e+06 M⁻¹ s⁻¹ | IC50 [3]: 6.88 nM | Kd [4]: 3.68 nM | koff [4]: 0.00713 s⁻¹ | kon [4]: 1.94e+06 M⁻¹ s⁻¹
B3: 64C10G1-VH1VL4 (Fab, V domains shown)
VH: B1 VH
VL: B1 VL with F71Y
notes: Humanized Fab, human gamma 1 and kappa constant domains; also called 64C10G1-VH1VL4(Fab)

EC50 [1]: 1.23 nM | Kd [2]: 1.92 nM | koff [2]: 0.00515 s⁻¹ | kon [2]: 2.69e+06 M⁻¹ s⁻¹ | IC50 [3]: 7.02 nM | Kd [4]: 1.92 nM | koff [4]: 0.00515 s⁻¹ | kon [4]: 2.69e+06 M⁻¹ s⁻¹
B4: 64C10G1-VH1VL2 (Fab, V domains shown)
VH: B1 VH
VL: B1 VL with I58V
notes: Humanized Fab, human gamma 1 and kappa constant domains; also called 64C10G1-VH1VL2(Fab)

kon [5]: 5.36e+06 M⁻¹ s⁻¹
B5: 71F4-4B12 (antibody, V domains shown)
VH: EVQLVESGGGLVQPGGSLRLSCAASGIDFSRYWMSWVRQAPGKGLEWVAEINPERNYINYAPSLKDRFTISRDNAKNSLYLQMNSLRAEDTAVYYCARQDDYDKYAMDYWGQGTTVTVSS
VL: DIQMTQSPSSLSASVGDRVTITCKASQDVNTGVTWYQQKPGKAPKLLIYSASYRYTGVPSRFSGSGSGTDFTFTISSLQPEDIATYYCQQYYSTPLTFGGGTKLEIK
notes: not certain; also called 71F4A3-B12

EC50 [1]: 0.575 nM | Kd [2]: 0.462 nM | koff [2]: 0.000987 s⁻¹ | kon [2]: 2.14e+06 M⁻¹ s⁻¹ | IC50 [3]: 11.3 nM | Kd [4]: 0.934 nM | koff [4]: 0.00153 s⁻¹ | kon [4]: 1.64e+06 M⁻¹ s⁻¹
B6: 71F4A3-VH3VL1 (Fab, V domains shown)
VH: B5 VH with E6Q, A49G, E54D, R55S, N56S, Y57T, L86V, D103E, K104Y
VL: B5 VL with T34A
notes: Humanized Fab, human gamma 1 and kappa constant domains

kon [5]: 1.03e+06 M⁻¹ s⁻¹
B7: 71F4A3-BE3 (antibody, V domains shown)
VH: B5 VH with R55S, N56S, Y57T, D103L, K104T
VL: B5 VL with G32A, T34D, Y36F
notes: also called 71F4-BE3

EC50 [1]: 1.18 nM | Kd [2]: 0.516 nM | koff [2]: 0.00147 s⁻¹ | kon [2]: 2.85e+06 M⁻¹ s⁻¹ | IC50 [3]: 10.7 nM | Kd [4]: 0.628 nM | koff [4]: 0.00116 s⁻¹ | kon [4]: 1.84e+06 M⁻¹ s⁻¹
B8: 71F4A3-VH1VL2 (Fab, V domains shown)
VH: B5 VH with E54D, R55S, N56S, Y57T, D103E, K104Y
VL: B5 VL with T34A, L78V
notes: as for B6

kon [5]: 6.3e+06 M⁻¹ s⁻¹
B9: 71F4A3-3F12 (antibody, V domains shown)
VH: B5 VH with R55S, Y57F, D103S, K104V
VL: B5 VL with Y36F
notes: also called 71F4-3F12

EC50 [1]: 0.974 nM | Kd [2]: 0.426 nM | koff [2]: 0.00136 s⁻¹ | kon [2]: 3.2e+06 M⁻¹ s⁻¹ | IC50 [3]: 11.2 nM | Kd [4]: 0.619 nM | koff [4]: 0.00125 s⁻¹ | kon [4]: 2.02e+06 M⁻¹ s⁻¹
B10: 71F4A3-VH1VL1 (Hz71F4) Fab (Fab, V domains shown)
VH: B5 VH with E54D, R55S, N56S, Y57T, D103E, K104Y
VL: B5 VL with T34A
notes: as for B6

kon [5]: 6.58e+06 M⁻¹ s⁻¹
B11: 71F4A3-5A4 (antibody, V domains shown)
VH: B5 VH with R55S, N56T, Y57G, D103W, K104T
VL: B5 VL with G32A, T34S, Y36T
notes: also called 71F4-5A4

kon [5]: 1.64e+07 M⁻¹ s⁻¹
B12: 71F4A3-4H1 (antibody, V domains shown)
VH: B5 VH with R55S, N56T, Y57L, D103R, K104N
VL: B5 VL with T34S, Y36F
notes: also called 71F4-4H1

kon [5]: 2.09e+06 M⁻¹ s⁻¹
B13: 71F4A3-BC1 (antibody, V domains shown)
VH: B5 VH with R55A, N56S, Y57S, D103S, K104H
VL: B5 VL with T34S, Y36S
notes: also called 71F4-BC1

kon [5]: 362000 M⁻¹ s⁻¹
B14: 71F4A3-BC4 (antibody, V domains shown)
VH: B5 VH with R55A, N56G, Y57K, I58W, D103T, K104T
VL: B5 VL with T34S
notes: also called 71F4-BC4

EC50 [1]: 0.819 nM | Kd [2]: 0.554 nM | koff [2]: 0.00108 s⁻¹ | kon [2]: 1.95e+06 M⁻¹ s⁻¹ | IC50 [3]: 10.5 nM | Kd [4]: 0.853 nM | koff [4]: 0.00145 s⁻¹ | kon [4]: 1.7e+06 M⁻¹ s⁻¹
B15: 71F4A3-VH2VL1 (Fab, V domains shown)
VH: B5 VH with E6Q, E54D, R55S, N56S, Y57T, D103E, K104Y
VL: B5 VL with T34A
notes: as for B6

kon [5]: 1.9e+06 M⁻¹ s⁻¹
B16: 71F4A3-BD12 (antibody, V domains shown)
VH: B5 VH with R55T, N56T, Y57I, D103R, K104H
VL: B5 VL with T34A, Y36F
notes: also called 71F4-BD12

EC50 [1]: 1.49 nM | Kd [2]: 0.556 nM | koff [2]: 0.00184 s⁻¹ | kon [2]: 3.3e+06 M⁻¹ s⁻¹ | Kd [6]: 0.154 nM | koff [6]: 0.000285 s⁻¹ | kon [6]: 1.85e+06 M⁻¹ s⁻¹ | IC50 [3]: 5.07 nM | Kd [4]: 0.782 nM | koff [4]: 0.00141 s⁻¹ | kon [4]: 1.8e+06 M⁻¹ s⁻¹
B17: 71F4A3 chimeric Fab (Fab, V domains shown)
VH: EVKLLQSGGGLVQPGGSLKLSCAASGIDFSRYWMSWVRRAPGKGLEWIGEINPDSSTINYAPSLKDKFIISRDNAKNTLYLQMSKVRSEDTALYYCARQDDYEYYAMDYWGQGTSVTVSS
VL: DIVMTQSHKSMSTSVGDRVSITCKASQDVNTGVAWYRQKPGQSPKLLIYSASYRYTGVPDRFTGSGSGTDFTFTISSVQAEDLAVYYCQQYYSTPLTFGAGTKLELK
notes: Fab

IC50 [7]: 15.1 µg/mL
B18: 19H7E10 chimeric human IgG1 antibody (antibody, V domains shown)
VH: EVQLQQSGPELVKPGASVKISCQASGYAFSDYYMNWVKQSHGKRLEWIGDINPNNDGTTYNQKFKDKATLTVDKSSSTAYMDLRSLTSEDSAVYYCARLSWSFFAMDYWGQGTSVTVSS
VL: DIVMTQSHKFMSTSVGDRVSITCKASQDVSSGVAWYQQKPGQSPKVLIYSASHRHTGVPDRFTASGSGTDFTFTISSVQAEDLAVYYCQQYYNTPWTFGGGTKLEIK
notes: Chimeric human IgG1

Source: patent US20210284724A1 (I MAB BIOPHARMA US, published 2021)
